Reference: article PMC11931385, “Structural and functional analysis of cancer-associated missense variants in the retinoblastoma protein pocket domain” (The Journal of Biological Chemistry, 2025)
Substitutions are numbered along the chain they refer to. Numbers in names are those of the source. No end group written: not given here. TMR = tetramethyl rhodamine dye

Assays:
Conditions in all cases: both partners purified
Rb^P S588F = molecular target: T1, Rb^P S588F (human, UniProt P06400 380-788, S588F); test: fluorescence polarisation; 25 °C; unlabeled Rb^P titrated against 1.5 nM TMR-E2F1^TD or 7.5 nM TMR-E7^LxCxE; 25 mM Tris pH 8.0, 200 mM NaCl, 1 mM DTT, 0.1% Tween-20; 2 min incubation; quadratic fit; apparent Kd for the variants, Kd for WT
T1 construct: also called variant 34
T1 sequence (looked up): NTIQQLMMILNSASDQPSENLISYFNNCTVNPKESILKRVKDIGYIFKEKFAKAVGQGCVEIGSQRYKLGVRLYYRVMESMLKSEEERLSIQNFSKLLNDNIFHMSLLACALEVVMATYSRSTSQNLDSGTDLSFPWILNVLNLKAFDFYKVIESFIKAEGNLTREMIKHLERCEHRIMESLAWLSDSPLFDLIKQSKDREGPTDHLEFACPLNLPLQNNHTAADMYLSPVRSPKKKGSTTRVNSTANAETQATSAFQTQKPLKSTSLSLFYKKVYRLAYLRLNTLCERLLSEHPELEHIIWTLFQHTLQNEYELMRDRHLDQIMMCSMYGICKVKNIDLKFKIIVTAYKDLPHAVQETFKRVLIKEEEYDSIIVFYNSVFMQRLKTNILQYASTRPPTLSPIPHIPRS

Rb^P S751C = molecular target: T2, Rb^P S751C (human, UniProt P06400 380-788, S751C); test: fluorescence polarisation; 37 °C, after the 25 °C reading ramped over 7 min to 37 °C and 2 min incubation; unlabeled Rb^P against 1.5 nM TMR-E2F1^TD or 7.5 nM TMR-E7^LxCxE; 25 mM Tris pH 8.0, 200 mM NaCl, 1 mM DTT, 0.1% Tween-20; apparent Kd
T2 construct: also called variant 71
T2 sequence (looked up): T1 sequence (looked up) with F209S, S372C

Rb^P I679F = molecular target: T3, Rb^P I679F (human, UniProt P06400 380-788, I679F); test: as above
T3 construct: also called variant 57
T3 sequence (looked up): T1 sequence (looked up) with F209S, I300F

Rb^P Q444R = molecular target: T4, Rb^P Q444R (human, UniProt P06400 380-788, Q444R); test: as above
T4 construct: also called variant 4
T4 sequence (looked up): T1 sequence (looked up) with Q65R, F209S

Rb^P S463L = molecular target: T5, Rb^P S463L (human, UniProt P06400 380-788, S463L); test: as above
T5 construct: also called variant 10
T5 sequence (looked up): T1 sequence (looked up) with S84L, F209S

B1: TMR-E2F1^TD, peptide of the E2F1 transactivation domain (peptide)
peptide: {TMR}-GEGIRDLFDCDFGDLTPLD
notes: also called E2F^TD; source: synthetic peptide, bought: GenScript
Rb^P S588F
  Kd: 36 nM
Rb^P S751C
  Kd: 137 nM
Rb^P I679F
  Kd: 33 nM
Rb^P Q444R
  Kd: 25 nM
Rb^P S463L
  Kd: 41 nM

B2: TMR-E7^LxCxE, LxCxE peptide of the E7 oncoprotein from HPV (peptide)
peptide: DLYCYEQLN
modifications: also: TMR label, position not given here
notes: source: synthetic peptide, bought: GenScript
Rb^P S588F
  Kd: 5 nM
Rb^P S751C
  Kd: 98 nM
Rb^P I679F
  Kd: 20 nM
Rb^P Q444R
  Kd: 17 nM
Rb^P S463L
  Kd: 17 nM
